Test results taken from patent US20220111034A1, “VIRUS COMPOSITIONS” (priority 2019, published 2022).

Columns and labels:
[1] = target: His6-tagged JAM-A (Bio-Connect Life Science), immobilized on NTA-Ni2+ surfaces or biosensors; assay: single-virus AFM force spectroscopy, virion on tip, His6-JAM-A model surface
[2] = target: human JAM-A expressed on the surface of transduced Lec2 or CHO cells (Lec2-JAM-A, CHO-JAM-A) (human) (UniProt Q9Y624); assay: FD-based AFM adhesion mapping on living Lec2-JAM-A cells
[3] = target: His6-tagged JAM-A (Bio-Connect Life Science), immobilized on NTA-Ni2+ surfaces or biosensors; assay: AFM dynamic force spectroscopy, Bell-Evans fit, JAM-A model surface
[4] = target: human JAM-A expressed on the surface of transduced Lec2 or CHO cells (Lec2-JAM-A, CHO-JAM-A) (human) (UniProt Q9Y624); assay: FD-based AFM on neuraminidase-treated Lec2-JAM-A cells after injection of Neu5Ac, against before injection
[5] = target: human JAM-A expressed on the surface of transduced Lec2 or CHO cells (Lec2-JAM-A, CHO-JAM-A) (human) (UniProt Q9Y624); assay: FD-based AFM on Lec2-JAM-A cells, after injection of 1 mM Neu5Ac
[6] = target: human JAM-A expressed on the surface of transduced Lec2 or CHO cells (Lec2-JAM-A, CHO-JAM-A) (human) (UniProt Q9Y624); assay: FD-based AFM on Lec2-JAM-A cells, after injection of 1 mM LNnT
[7] = target: human JAM-A expressed on the surface of transduced Lec2 or CHO cells (Lec2-JAM-A, CHO-JAM-A) (human) (UniProt Q9Y624); assay: FD-based AFM on Lec2-JAM-A cells, before injection of 1 mM Neu5Ac
[8] = target: His6-tagged JAM-A (Bio-Connect Life Science), immobilized on NTA-Ni2+ surfaces or biosensors; assay: AFM force spectroscopy on JAM-A model surface after injection of 1 mM Neu5Ac or LSTa
[9] = target: human JAM-A expressed on the surface of transduced Lec2 or CHO cells (Lec2-JAM-A, CHO-JAM-A) (human) (UniProt Q9Y624); assay: FD-based AFM on Lec2-JAM-A cells, before injection of 1 mM LNnT
[10] = target: human JAM-A expressed on the surface of transduced Lec2 or CHO cells (Lec2-JAM-A, CHO-JAM-A) (human) (UniProt Q9Y624); assay: FD-based AFM on Lec2-JAM-A cells, after injection of 1 mM LSTa
[11] = target: human JAM-A expressed on the surface of transduced Lec2 or CHO cells (Lec2-JAM-A, CHO-JAM-A) (human) (UniProt Q9Y624); assay: FD-based AFM on Lec2-JAM-A cells, before injection of 1 mM LSTa

Sequence of human JAM-A expressed on the surface of transduced Lec2 or CHO cells (Lec2-JAM-A, CHO-JAM-A) (human) (Q9Y624 28-299): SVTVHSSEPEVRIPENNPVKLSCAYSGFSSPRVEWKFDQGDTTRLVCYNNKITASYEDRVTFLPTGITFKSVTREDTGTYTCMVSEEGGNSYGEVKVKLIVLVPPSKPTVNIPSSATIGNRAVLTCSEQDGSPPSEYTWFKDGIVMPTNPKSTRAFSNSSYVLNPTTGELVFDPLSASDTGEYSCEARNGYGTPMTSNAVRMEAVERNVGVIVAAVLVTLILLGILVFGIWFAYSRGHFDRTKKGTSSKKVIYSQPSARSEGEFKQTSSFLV

“T3SA- reovirus virion (T3D derivative carrying a point mutation in sigma-1, T3D-σ1R202W) (from UniProt P03528 1-455)” showed a specific binding force [1] of 20 to 130 pN, a frequency of adhesion events (binding frequency) [2] of 4% and a koff [3] of 0.05 s⁻¹. It also gave a xu (distance to the transition state) [3] of 0.48 nm.
“T3SA+ reovirus virion (wild-type strain type 3 Dearing, T3D), binding through its outer-capsid attachment protein sigma-1 (σ1) (from UniProt P03528 1-455)” showed a specific binding force [1] of 20 to 130 pN, an increase in binding [4] of 20% and a binding frequency [5] of 4.9%. It also gave a binding force (rupture force) [2] of 50 to 400 pN, a density of adhesion events (binding frequency) [2] of 3.5% and a binding frequency [6] of 3.9%. For the same substance, the binding frequency [7] was 3.9%, the overall binding force [8] was < 400 pN and the binding frequency [9] was 3.8%. It also gave a koff [3] of 0.04 s⁻¹, a xu (distance to the transition state) [3] of 0.71 nm and a binding frequency [10] of 4.8%. For the same substance, the binding frequency [11] was 3.8%.
